Measured values reported in PMC12503259, “Establishment of an in vivo analytical method for detecting total anti-UFH activity and pharmacokinetic study in PS and R15 in rats” (PLOS One, 2025).
Like-named read-outs stand apart in the source and are kept apart here.

Experiments:
[1] = Pharmacokinetic study in Wistar rats, total anti-heparin activity in plasma (fixed UFH added, residual UFH by anti-FXa kit); assay type: in vivo
Method: Processing of Plasma Samples: 100 μL of the unknown plasma sample was added to 500 μL of 75% methanol (methanol: water = 75:25, v/v) and vortex-mixed for 5 seconds. The mixture was then centrifuged at 12,000 r/min for 10 minutes at 25°C. The supernatant (500 μL) was collected and dried under nitrogen at 60°C. Subsequently, UFH (0.14 U·mL^-1 for PS and 0.15 U·mL^-1 for R15; 120 μL) was added, and the mixture was vigorously shaken at room temperature for 10 minutes. The residual UFH content was measured using the Heparin Anti-FXa assay kit.
The detailed procedure is as follows: Accurately pipette 40 μL of the sample into a 96-well plate. Place the plate in a microplate shaker. Using a multichannel pipette, add 40 μL of reagent R1 and mix by shaking. Incubate at 37 °C for exactly 3 minutes (start timing upon addition of R1; at 50 seconds, begin shaking with the microplate shaker for 1 minute, then place the plate in the incubator). Remove the 96-well plate from the incubator and place it on the open microplate shaker. Using a multichannel pipette, add 40 μL of reagent R2 to each well and incubate at 37 °C for 6 minutes (after adding R2, at 3 minutes and 50 seconds, open the microplate shaker and shake for 4 minutes, then return the plate to the incubator). Remove the 96-well plate from the incubator and place it on the open microplate shaker. Quickly add 40 μL of reagent R3 using a multichannel pipette and shake until 9 minutes and 10 seconds. At 9 minutes and 30 seconds, add 80 μL of 20% acetic acid to each well to terminate the reaction. Measure the absorbance at 405 nm using a microplate reader (Multiskan FC, Thermo Fisher US).
Eight Wistar rats (approximately 250 g; equally divided by sex and acclimatized for 1 week in the animal facility) were used for profiling pharmacokinetics of PS. Each rat was cannulated in carotid artery to collect blood the day before the experiment. PS was injected through the tail vein and blood samples were collected at 0 min, 1 min, 3 min, 5 min, 7 min, 9 min, 11 min, 15 min, 20 min, 30 min, 60 min and 120 min in a tube containing 4% sodium citrate. Plasma was achieved by centrifugation at 8000 r/min for 10 min, and stored in the refrigerator at −80°C. […]
During the analysis of actual samples, a standard curve and a series of calibration standards were established for each analytical batch to determine the concentration of PS and R15 in plasma. The concentrations were plotted on the X-axis, and the data were fitted using Equation (3).
Weighted least squares regression was used for the calculations. The Optical Density (OD) values of the unknown biological samples were substituted into the equation to determine the concentration of PS and R15, respectively.
Pharmacokinetic parameters of PS were calculated by WinNonlin 6.4, and all data were processed by Microsoft Excel 2013 and GraphPad Prism 8.3.

[2] = tested on: activated partial thromboplastin time (APTT); conditions: in vitro, supratherapeutic amounts; cited from earlier work
[3] = Specific activity, units of UFH neutralized per mg; assay type: biochemical; conditions: units of UFH exactly neutralized per milligram
Source text: Since the toxicity of both PS and R15 correlates with their heparin antagonism capacity (i.e., potency), the units used for PS and R15 in most experiments are U·mL^-1 or U·kg^-1. Employing activity units (U) allows for a more scientifically rigorous comparison of the pharmacokinetic parameters of PS and R15 under equivalent activity levels (i.e., equivalent heparin antagonism capacity).
The specific activity of PS is 150 U·mg^-1, meaning that each milligram of PS can exactly neutralize 150 units of UFH. The specific activity of R15 is 170 U·mg^-1, meaning that each milligram of R15 can exactly neutralize 170 units of UFH. Therefore, expressing the concentration of PS as 1 U·mL^-1 denotes that each milliliter of the medium contains sufficient PS to neutralize 1 unit of UFH, and the same applies to R15.

[4] = in vivo; cited from earlier work
Source text: In clinical practice, PS is typically administered at 1.2 times the anti-heparin activity of circulating UFH to achieve complete neutralization [40, 41].

[5] = PS 300 U/kg iv, rat 1# (male), single animal
[6] = PS 300 U/kg iv, rat 2# (male), single animal
[7] = PS 300 U/kg iv, rat 3# (male), single animal, not included in mean
[8] = PS 300 U/kg iv, rat 6# (male), single animal
[9] = PS 300 U/kg iv, rat 11# (female), single animal
[10] = PS 300 U/kg iv, rat 12# (female), single animal
[11] = PS 300 U/kg iv, rat 13# (female), single animal
[12] = PS 300 U/kg iv, rat 14# (female), single animal, not included in mean
[13] = PS 300 U·kg^-1 single iv tail vein, Wistar rats, Total (male and female), mean ± SD, n = 6, rats 3# and 14# excluded
[14] = PS 300 U·kg^-1 single iv tail vein, Wistar rats, female, mean ± SD, rat 14# excluded
[15] = PS 300 U·kg^-1 single iv tail vein, Wistar rats, male, mean ± SD, rat 3# excluded

Substance: Protamine sulfate [PS]
- plasma concentration ([1]; PS 300 U/kg iv, 1 min, Mean±SD): 12.19 ± 1.89 µg/mL
- plasma concentration ([1]; PS 300 U/kg iv, 3 min, Mean±SD): 3.41 ± 1.62 µg/mL
- plasma concentration ([1]; PS 300 U/kg iv, 5 min, Mean±SD): 1.76 ± 0.44 µg/mL
- plasma concentration ([1]; PS 300 U/kg iv, 7 min, Mean±SD): 0.91 ± 0.29 µg/mL
- plasma concentration ([1]; PS 300 U/kg iv, 9 min, Mean±SD): 0.82 ± 0.26 µg/mL
- plasma concentration ([1]; PS 300 U/kg iv, 11 min, Mean±SD): 0.67 ± 0.21 µg/mL
- plasma concentration ([1]; PS 300 U/kg iv, 15 min, Mean±SD): 0.55 ± 0.09 µg/mL
- plasma concentration ([1]; PS 300 U/kg iv, 20 min, Mean±SD column (one rat)): 0.43 µg/mL
- plasma concentration ([1]; PS 300 U/kg iv, 20 min, rat 6#): 0.43 µg/mL
- AUC [1, 5]: 35.86 min･µg･mL^-1
- CL [1, 5]: 53.74 mL･min^-1･kg^-1
- Cmax [1, 5]: 12.10 µg･mL^-1
- MRT [1, 5]: 2.51 min
- T1/2 [1, 5]: 1.72 min
- Vd [1, 5]: 134 mL･kg^-1
- AUC [1, 6]: 42.97 min･µg･mL^-1
- CL [1, 6]: 41.70 mL･min^-1･kg^-1
- Cmax [1, 6]: 15.14 µg･mL^-1
- MRT [1, 6]: 3.20 min
- T1/2 [1, 6]: 7.06 min
- Vd [1, 6]: 425 mL･kg^-1
- AUC [1, 7]: 17.83 min･µg･mL^-1
- Cmax [1, 7]: 11.17 µg･mL^-1
- MRT [1, 7]: 1.12 min
- AUC [1, 8]: 45.62 min･µg･mL^-1
- CL [1, 8]: 39.21 mL･min^-1･kg^-1
- Cmax [1, 8]: 14.12 µg･mL^-1
- MRT [1, 8]: 4.40 min
- T1/2 [1, 8]: 8.65 min
- Vd [1, 8]: 489 mL･kg^-1
- AUC [1, 9]: 29.16 min･µg･mL^-1
- CL [1, 9]: 66.07 mL･min^-1･kg^-1
- Cmax [1, 9]: 12.55 µg･mL^-1
- MRT [1, 9]: 2.12 min
- T1/2 [1, 9]: 1.64 min
- Vd [1, 9]: 156 mL･kg^-1
- AUC [1, 10]: 33.06 min･µg･mL^-1
- CL [1, 10]: 55.19 mL･min^-1･kg^-1
- Cmax [1, 10]: 12.70 µg･mL^-1
- MRT [1, 10]: 2.49 min
- T1/2 [1, 10]: 2.18 min
- Vd [1, 10]: 173 mL･kg^-1
- AUC [1, 11]: 28.68 min･µg･mL^-1
- CL [1, 11]: 66.01 mL･min^-1･kg^-1
- Cmax [1, 11]: 9.40 µg･mL^-1
- MRT [1, 11]: 2.97 min
- T1/2 [1, 11]: 2.41 min
- Vd [1, 11]: 229 mL･kg^-1
- AUC [1, 12]: 18.80 min･µg･mL^-1
- CL [1, 12]: 97.21 mL･min^-1･kg^-1
- Cmax [1, 12]: 10.34 µg･mL^-1
- MRT [1, 12]: 1.46 min
- T1/2 [1, 12]: 1.20 min
- Vd [1, 12]: 168 mL･kg^-1
- Cmax ([1]; PS 300 U·kg^-1 single iv tail vein, Wistar rats, Total (male and female), at 1 min, mean ± SD, n = 6, rats 3# and 14# excluded): 12.67 ± 1.96 µg/mL
- AUC [1, 13]: 35.89 ± 7.07 µg·min/mL
- CL [1, 13]: 53.65 ± 11.49 mL/min/kg
- MRT [1, 13]: 2.95 ± 0.81 min
- T1/2 [1, 13]: 3.94 ± 3.08 min
- Vd [1, 13]: 268 ± 151 mL/kg
- AUC [1, 14]: 30.30 ± 2.40 µg·min/mL
- CL [1, 14]: 62.42 ± 6.26 mL/min/kg
- Cmax [1, 14]: 11.55 ± 1.86 µg/mL
- MRT [1, 14]: 2.53 ± 0.43 min
- T1/2 [1, 14]: 2.08 ± 0.40 min
- Vd [1, 14]: 186 ± 38 mL/kg
- AUC [1, 15]: 41.48 ± 5.05 µg·min/mL
- CL [1, 15]: 44.88 ± 7.77 mL/min/kg
- Cmax [1, 15]: 13.79 ± 1.55 µg/mL
- MRT [1, 15]: 3.37 ± 0.96 min
- T1/2 [1, 15]: 5.81 ± 3.63 min
- Vd [1, 15]: 349 ± 189 mL/kg
- effect of excess on APTT [2]: persistently prolonged APTT
- specific activity [3]: 150 U·mg^-1
- T1/2 [4]: 7.4 min
